54 molecules from US20150147274A1 (CANCER RESEARCH TECHNOLOGY, published 2015) can be followed below.

Residue numbers refer to the chain shown, from its start.

To fix the notation:
B1: 108_D5 (scFv)
scFv: QMQLVQSGAEVKKPGAPVKVSCKVSGYTFTDYYMHWVQQAPGKGLEWMGLVDPEDGETIYAEKFQGRVTITADTSTDTAYMELSSLRSEDTAVYYCATDATTPYWSPHTWGQGTLVTVSSLEGGGGSGGGGSGGGASDIQMTQSPSSLSASVGDRVTITCQASQDISNYLNWYQQKPGRAPKVLIYDASNLETGVPSRFSGSGSGTEFTLTISNLRPDDFATYYCQQGDSFPLTFGGGTKVEIK
notes: not shown: 6xHis/tri-FLAG tags
B2: 110_A3 (scFv)
scFv: B1 scFv with S106G, P107V, H108Q, T109V
notes: as for B1
B3: 111_C3 (scFv)
scFv: B1 scFv with S106G, P107M, H108Q, T109G
notes: as for B1
B4: 108_F3 (scFv)
scFv: B1 scFv with S106G, P107M, H108A, T109K
notes: as for B1
B5: 108_E11 (scFv)
scFv: B1 scFv with W105C, P107R, H108T, T109S
notes: as for B1
B6: 108_D10 (scFv)
scFv: B1 scFv with S106G, P107M, H108S, T109H
notes: as for B1
B7: 111_C5 (scFv)
scFv: B1 scFv with S106F, H108K, T109V
notes: as for B1
B8: 110_B7 (scFv)
scFv: B1 scFv with A100G, T101L, T102W, P103M, W105Y, S106G, P107M, H108D, T109V
notes: as for B1
B9: 108_D9 (scFv)
scFv: B1 scFv with S106Y, H108Y, T109V
notes: as for B1
B10: 108_D7 (scFv)
scFv: B1 scFv with S106G, P107M, H108D, T109M
notes: as for B1
B11: 109_H11 (scFv)
scFv: B1 scFv with S106G, P107M, H108A, T109Q
notes: as for B1
B12: 108_D12 (scFv)
scFv: B1 scFv with S106T, H108Y, T109V
notes: as for B1
B13: 109_G11 (scFv)
scFv: B1 scFv with S106W, P107T, H108A, T109N
notes: as for B1
B14: 108_F2 (scFv)
scFv: B1 scFv with S106G, P107M, H108S, T109S
notes: as for B1
B15: 109_G10 (scFv)
scFv: B1 scFv with S106F, H108R, T109V
notes: as for B1
B16: 109_G12 (scFv)
scFv: B1 scFv with S106G, P107M, H108A, T109A
notes: as for B1
B17: 109_H9 (scFv)
scFv: B1 scFv with S106G, P107M, H108T, T109K
notes: as for B1
B18: 110_B9 (scFv)
scFv: B1 scFv with H108I, T109W
notes: as for B1
B19: 110_B6 (scFv)
scFv: B1 scFv with A100T, T101D, T102L, P103K, W105Y, S106G, P107M, H108D, T109V
notes: as for B1
B20: 109_H6 (scFv)
scFv: B1 scFv with S106F, H108R
notes: as for B1
B21: 109_H7 (scFv)
scFv: B1 scFv with S106F, H108R, T109W
notes: as for B1
B22: 108_E5 (scFv)
scFv: B1 scFv with S106G, P107M, H108W, T109I
notes: as for B1
B23: 108_E12 (scFv)
scFv: B1 scFv with S106L, P107A, H108A, T109E
notes: as for B1
B24: 109_H3 (scFv)
scFv: B1 scFv with S106G, P107M, H108Q, T109Q
notes: as for B1
B25: 108_F6 (scFv)
scFv: B1 scFv with W105C, S106C, P107T, H108I, T109E
notes: as for B1
B26: 111_C1 (scFv)
scFv: B1 scFv with H108W, T109A
notes: as for B1
B27: 108_E10 (scFv)
scFv: B1 scFv with S106F, H108W, T109V
notes: as for B1
B28: 108_G3 (scFv)
scFv: B1 scFv with S106A, H108W, T109R
notes: as for B1
B29: 111_B12 (scFv)
scFv: B1 scFv with S106G, P107A, H108Q, T109A
notes: as for B1
B30: 110_B3 (scFv)
scFv: B1 scFv with A100M, T101E, T102L, P103N, W105Y, S106G, P107M, H108D, T109V
notes: as for B1
B31: 109_G8 (scFv)
scFv: B1 scFv with S106G, P107M, H108A
notes: as for B1
B32: 108_E1 (scFv)
scFv: B1 scFv with S106F, H108L, T109V
notes: as for B1
B33: 111_C10 (scFv)
scFv: B1 scFv with S106T, H108E, T109I
notes: as for B1
B34: 108_G5 (scFv)
scFv: B1 scFv with S106W, P107M, H108Q, T109S
notes: as for B1
B35: 108_G1 (scFv)
scFv: B1 scFv with S106F, H108R, T109M
notes: as for B1
B36: 110_B5 (scFv)
scFv: B1 scFv with S106G, P107M, H108M, T109S
notes: as for B1
B37: 108_G6 (scFv)
scFv: B1 scFv with S106F, H108V, T109W
notes: as for B1
B38: 109_H5 (scFv)
scFv: B1 scFv with S106G, P107A, H108Q, T109E
notes: as for B1
B39: 110_A5 (scFv)
scFv: B1 scFv with S106Y, H108F, T109V
notes: as for B1
B40: 108_D11 (scFv)
scFv: B1 scFv with S106G, P107A, H108A, T109A
notes: as for B1
B41: 109 H2 (scFv)
scFv: B1 scFv with S106G, P107M, H108W, T109E
notes: as for B1
B42: 110_A9 (scFv)
scFv: B1 scFv with S106G, P107M, H108A, T109G
notes: as for B1
B43: 108_E8 (scFv)
scFv: B1 scFv with S106W, P107M, H108Q, T109K
notes: as for B1
B44: 108_E7 (scFv)
scFv: B1 scFv with S106G, P107M, H108W, T109R
notes: as for B1
B45: 111_C8 (scFv)
scFv: B1 scFv with S106F, H108V, T109V
notes: as for B1
B46: 110_A8 (scFv)
scFv: B1 scFv with S106C, P107M, H108A, T109I
notes: as for B1
B47: 108_F11 (scFv)
scFv: B1 scFv with A100G, T101S, T102N, P103L, Y104S, S106Q, P107M, H108D, T109V
notes: as for B1
B48: 109_H8 (scFv)
scFv: B1 scFv with S106F, H108R, T109S
notes: as for B1
B49: 111_C6 (scFv)
scFv: B1 scFv with S106F, H108Q, T109H
notes: as for B1
B50: 108_E4 (scFv)
scFv: B1 scFv with S106G, P107M, H108I, T109W
notes: as for B1
B51: 110_B8 (scFv)
scFv: B1 scFv with S106G, P107M, H108M, T109L
notes: as for B1
B52: 109_H1 (scFv)
scFv: B1 scFv with S106G, P107V, H108Q, T109K
notes: as for B1
B53: 111_C9 (scFv)
scFv: B1 scFv with S106G, P107M, H108M, T109A
notes: as for B1
B54: 110_A2 (scFv)
scFv: B1 scFv with S106G, P107M, H108S
notes: as for B1

The target of the test is T1, MET928 (cMET protein derived from construct 25-928) (human, UniProt P08581 25-928).
T1 construct: MET ectodomain, residues 1-24 are the leader; produced in Lec 8 cells; background text says the ectodomain is furin-cleaved into alpha (25-307) and beta chains; biotinylated form used in selections; also called MET928 extracellular domain; Met extracellular domain
T1 sequence (P08581 25-928): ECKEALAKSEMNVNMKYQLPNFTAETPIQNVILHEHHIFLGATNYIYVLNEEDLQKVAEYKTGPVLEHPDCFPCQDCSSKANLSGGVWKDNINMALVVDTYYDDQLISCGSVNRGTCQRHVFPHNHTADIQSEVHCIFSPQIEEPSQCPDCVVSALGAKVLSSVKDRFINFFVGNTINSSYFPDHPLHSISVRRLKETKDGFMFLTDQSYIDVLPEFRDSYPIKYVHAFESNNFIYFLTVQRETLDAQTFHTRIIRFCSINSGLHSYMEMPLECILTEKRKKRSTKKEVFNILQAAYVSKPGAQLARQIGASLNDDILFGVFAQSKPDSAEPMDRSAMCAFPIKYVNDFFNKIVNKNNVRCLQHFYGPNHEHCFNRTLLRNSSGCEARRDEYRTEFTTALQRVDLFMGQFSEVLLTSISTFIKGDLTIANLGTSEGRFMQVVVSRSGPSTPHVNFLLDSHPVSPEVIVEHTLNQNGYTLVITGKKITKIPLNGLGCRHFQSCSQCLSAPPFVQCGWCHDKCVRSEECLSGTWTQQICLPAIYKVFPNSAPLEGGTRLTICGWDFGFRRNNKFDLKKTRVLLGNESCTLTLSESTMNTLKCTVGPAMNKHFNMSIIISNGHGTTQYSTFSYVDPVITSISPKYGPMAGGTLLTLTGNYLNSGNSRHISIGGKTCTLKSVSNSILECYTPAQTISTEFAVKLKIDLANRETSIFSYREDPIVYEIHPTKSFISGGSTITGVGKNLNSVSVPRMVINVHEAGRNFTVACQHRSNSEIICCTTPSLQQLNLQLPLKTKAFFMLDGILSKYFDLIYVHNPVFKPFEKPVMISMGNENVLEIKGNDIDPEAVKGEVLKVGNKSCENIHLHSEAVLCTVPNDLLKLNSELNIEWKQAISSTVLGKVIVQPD
Put plainly: ELISA, soluble scFv. (An ELISA detects its analyte on a solid surface through an enzyme-linked reagent.)
For B1, the binding result is “binds”.

Take B2: the binding result is “binds”.

For B3, the binding result is reported as “binds”.

For the molecule B4, the binding result was “binds”.

In the case of B5, the binding result is “binds”.

Regarding B6, the binding result is given as “binds”.

On to B7, for which the binding result is “binds”.

As to B8, the binding result was “binds”.

Turning to B9, the binding result is reported as “binds”.

Turning to B10, the binding result was “binds”.

In the case of B11, the binding result was “binds”.

As to B12, the binding result is “binds”.

As for B13, the binding result is “binds”.

Consider B14, for which the binding result is given as “binds”.

With B15, the binding result is “binds”.

Consider B16, for which the binding result is listed as “binds”.

As for B17, the binding result is “binds”.

As to B18, the binding result is “binds”.

Consider B19, for which the binding result is on record as “binds”.

With B20, the binding result is given as “binds”.

With B21, the binding result was “binds”.

For the molecule B22, the binding result was “binds”.

B23: the binding result is “binds”.

Consider B24, for which the binding result is “binds”.

In the case of B25, the binding result was “binds”.

Take B26: the binding result is “binds”.

Turning to B27, the binding result was “binds”.

Consider B28, for which the binding result was “binds”.

B29: the binding result was “binds”.

In the case of B30, the binding result is given as “binds”.

In the case of B31, the binding result is on record as “binds”.

Turning to B32, the binding result is listed as “binds”.

Regarding B33, the binding result is given as “binds”.

Take B34: the binding result is on record as “binds”.

Consider B35, for which the binding result is reported as “binds”.

For the molecule B36, the binding result is “binds”.

In the case of B37, the binding result is “binds”.

For B38, the binding result is “binds”.

As to B39, the binding result is reported as “binds”.

B40: the binding result is listed as “binds”.

As for B41, the binding result is given as “binds”.

With B42, the binding result was “binds”.

As for B43, the binding result is “binds”.

In the case of B44, the binding result is recorded as “binds”.

With B45, the binding result was “binds”.

Regarding B46, the binding result is “binds”.

Turning to B47, the binding result is reported as “binds”.

Turning to B48, the binding result is “binds”.

B49: the binding result is given as “binds”.

Regarding B50, the binding result is given as “binds”.

Consider B51, for which the binding result was “binds”.

Turning to B52, the binding result was “binds”.

Consider B53, for which the binding result is reported as “binds”.

In the case of B54, the binding result is recorded as “binds”.
